This note sets out measurements from patent US20180362652A1 (Biogen, published 2018).

The target of assay [1] is T1, cynomolgus monkey BDCA2 (full-length, cell surface, E73 SNP form) (cynomolgus monkey, UniProt Q8WTT0 1-213 (human entry)).
T1 construct: also called cyno BDCA2; surface cynomolgus monkey BDCA2
T1 chain: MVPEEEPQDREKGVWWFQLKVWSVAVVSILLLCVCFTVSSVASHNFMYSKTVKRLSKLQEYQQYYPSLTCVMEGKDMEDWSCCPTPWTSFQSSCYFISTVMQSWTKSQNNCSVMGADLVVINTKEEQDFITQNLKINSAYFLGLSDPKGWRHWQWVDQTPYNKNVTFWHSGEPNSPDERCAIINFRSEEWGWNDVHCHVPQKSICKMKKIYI
In words: flow cytometry, whole blood pDCs of cynomolgus monkey donor 9, anti-human IgG PE secondary. Here is the method:
(§1) The MFI of PE was calculated in FlowJo software, and the percent of maximal binding, using the 40 μg/mL point as 100%, was computed. Each line represents one individual cynomolgus monkey, for a total of twelve cynomolgus monkeys, and graphed using GraphPad Prism software (four-parameter nonlinear regression curve fit of log-transformed data). Staining was repeated once a week for three weeks total.
(§2) The maximal values were taken from the values at the plateau in each assay (FIGS. 24 and 25).
(§3) MFI of PE was calculated with FlowJo software, and EC50 curves were generated in GraphPad Prism software.

Assay [2] addresses T1, cynomolgus monkey BDCA2 (full-length, …). In words: flow cytometry, whole blood pDCs of cynomolgus monkey donor 12, anti-human IgG PE secondary. The procedure: as §1, §2, §3
For assay [3] the target is unchanged. Nature of the assay: indirect method: flow cytometry of pDCs in cynomolgus whole blood, unlabelled BIIB059 titrated, free BDCA2 detected with the competitor BIIB059-A647 at 10 ug/mL [panel Cynomolgus monkey 8]. The procedure:
The MFI of PE (open symbols, graphed on the left y-axis) or A647 (closed symbols, graphed on the right y-axis) was calculated in FlowJo software, and graphed using GraphPad Prism software (four-parameter nonlinear regression curve fit of log-transformed data).

The target is the same in assay [4]. Nature of the assay: flow cytometry, whole blood pDCs of cynomolgus monkey donor 11, anti-human IgG PE secondary. Here is the method:
as §2, §3

The target is the same in assay [5]. In words: flow cytometry, whole blood pDCs, average of the twelve cynomolgus monkey donors. Here is the method:
as §2, §3

For assay [6] the target is unchanged. Nature of the assay: FACS.
Assay [7] concerns the target T2, human BDCA2 (full-length, cell surface) (human, UniProt Q8WTT0 1-213).
T2 construct: also called huBDCA2; surface human BDCA2
T2 sequence: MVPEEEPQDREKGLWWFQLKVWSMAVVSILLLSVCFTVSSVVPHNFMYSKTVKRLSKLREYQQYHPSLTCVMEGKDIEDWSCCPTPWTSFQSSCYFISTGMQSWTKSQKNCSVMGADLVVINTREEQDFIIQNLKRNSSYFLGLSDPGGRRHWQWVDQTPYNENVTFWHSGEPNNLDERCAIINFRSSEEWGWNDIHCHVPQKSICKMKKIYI
In words: FACS.

Assay [8] deals with T1, cynomolgus monkey BDCA2 (full-length, …). In words: flow cytometry, whole blood pDCs of cynomolgus monkey donor 2, anti-human IgG PE secondary. Here is the method:
as §1, §2, §3

Assay [9] has the same target. Nature of the assay: flow cytometry, whole blood pDCs of cynomolgus monkey donor 10, anti-human IgG PE secondary. The procedure: as §2, §3
For assay [10] the target is unchanged. Nature of the assay: flow cytometry, whole blood pDCs of cynomolgus monkey donor 5, anti-human IgG PE secondary. Here is the method:
as §2, §3

B1: BIIB059 (antibody, human IgG1, kappa)
heavy: not shown
light: DIQLTQSPSSLSASVGDRVTITCKASQSVDYDGDSYMNWYQQKPGKAPKLLIYAASTLESGVPSRFSGSGSGTDFTLTISSLQPEDFATYYCQQANEDPRTFGQGTKVEIKRTVAAPSVFIFPPSDEQLKSGTASVVCLLNNFYPREAKVQWKVDNALQSGNSQESVTEQDSKDSTYSLSSTLTLSKADYEKHKVYACEVTHQGLSSPVTKSFNRGEC
notes: Humanized IgG1 kappa, mature chains; in some assays labelled with Alexa647; also called hu24F4 H4/L1 C95A; H4-L1-C95A (YL751/YL746)
Turning to B1, the EC50 in [1] stood at 1.4 µg/mL; in [2] it was 1.6 µg/mL; in assay [4] it was 1.4 µg/mL; in assay [5] it was 1.2 µg/mL; in assay [6], 7 nM; in assay [7], 7 nM. Also, the EC50 in assay [8] stood at 1 µg/mL; in [9], 1.2 µg/mL; in assay [10], 0.71 µg/mL. Besides, the “IC50 (read off the curve)” value in assay [3] was ~2 µg/mL.
